± gives the uncertainty stated by the source.
Test: self-splicing fitness, log relative to wild type (ln ratio); higher = more splicing; Tetrahymena group I intron in knt gene, E. coli kanamycin selection, DiMSum; sequences stand for … in CUCUCU…GGAGGGAAAAGUUAUCAGGCAUGCACCUGGUAGCUAGUCUUUAAACCAAUAGAUUGCAUCGGUUUAAAAGGCAAGACCGUCAAAUUGCGGGAAAGGGGUCAACAGCCGUUCAGUACCAAGUCUCAGGGGAAACUUUGAGAUGGCCUUGCAAAGGGUAUGGUAAUAAGCUGACGGACAUGGUCCUAACCACGCAGCCAAGUCCUAAGUCAACAGAUCUUCUGUUGAUAUGGAUGCAGUUCACAGACUAAAUGUCGGUCGGGGAAGAUGUAUUCUUCUCAUAAGAUAUAGUCGGACCUCUCCUUAAUGGGAGCUAGCGGAUGAAGUGAUGCAACACUGGAGCCGCUGGGAACUAAUUUGUAUGCGAAAGUAUAUUGAUUAGUUUUGGAGUACUCGUGGUCG
Procedure, shortened: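 Pooled colonies went to amplicon sequencing on an Illumina HiSeq 2500 after six replicate transformations. The plates were LB agar with 100 μg/mL carbenicillin, 50 μM IPTG and 0.2% rhamnose, with or without 25 μg/mL kanamycin, incubated overnight at 37°C or 30°C. The E. coli BL21(DE3) library had all eight P1ex-region intron nucleotides randomised, the intron placed in the knt kanamycin-resistance gene on pET-22b(+). DiMSum fitness is the error-weighted combination of replicate fold changes, kanamycin against none, normalised to wild type.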

| Sequence | self-splicing fitness (ln) (30 °C) | self-splicing fitness (ln) (37 °C) |
| --- | --- | --- |
| GCGCAGCAAUAUUACGAGCG | -2.39 ± 0.15 | -2.26 ± 0.24 |
| UGGAAGCAAUAUUACGUGCC | -2.57 ± 0.27 | -0.372 ± 0.34 |
| AGGCAGCAAUAUUACGGAAU | -1.67 ± 0.057 | -0.844 ± 0.084 |
| CGUGAGCAAUAUUACGAUUA | – | -2.93 ± 0.25 |
| GACGAGCAAUAUUACGCUAA | -2.64 ± 0.35 | -2.25 ± 0.31 |
| AGAAAGCAAUAUUACGUGUU | -3.31 ± 0.15 | -1.99 ± 0.12 |
| AUCAAGCAAUAUUACGGGGG | -3.79 ± 0.22 | -2.64 ± 0.15 |
| GAGAAGCAAUAUUACGGUGU | -3.57 ± 0.15 | -1.58 ± 0.099 |
| AUUAAGCAAUAUUACGGUGU | -2.11 ± 0.088 | -0.653 ± 0.11 |
| UGAGAGCAAUAUUACGCCCG | -3.12 ± 0.3 | -0.718 ± 0.21 |
| UGUUAGCAAUAUUACGACGU | -0.716 ± 0.11 | -1.37 ± 0.1 |
| GGGCAGCAAUAUUACGAAAG | -3.58 ± 0.28 | -2.92 ± 0.35 |
| GGCUAGCAAUAUUACGGCUG | 0.0242 ± 0.097 | -0.992 ± 0.12 |
| AGCGAGCAAUAUUACGCCAA | -3.98 ± 0.25 | -1.56 ± 0.16 |
| CCCCAGCAAUAUUACGAUAC | -3.82 ± 0.27 | -2.85 ± 0.28 |
| CUGGAGCAAUAUUACGUGAA | -3.42 ± 0.22 | -2.01 ± 0.16 |
| AACGAGCAAUAUUACGGUGA | -3.07 ± 0.33 | -1.99 ± 0.31 |
| AGUCAGCAAUAUUACGAGAG | -2.88 ± 0.2 | -1.67 ± 0.18 |
| CGCCAGCAAUAUUACGUCAU | -4.39 ± 0.19 | -3.12 ± 0.18 |
| GGUCAGCAAUAUUACGGCGG | -0.828 ± 0.049 | -0.274 ± 0.065 |
| GAUCAGCAAUAUUACGCAUU | -2.36 ± 0.26 | -1.05 ± 0.32 |
| CAACAGCAAUAUUACGGCUC | -1.38 ± 0.078 | -0.333 ± 0.098 |
| GAGGAGCAAUAUUACGCGUA | -2.97 ± 0.27 | -1.6 ± 0.37 |
| UACCAGCAAUAUUACGAUAC | – | -2.39 ± 0.19 |
| UAUAAGCAAUAUUACGCAAG | -1.86 ± 0.23 | 0.725 ± 0.17 |

| Sequence | self-splicing fitness (ln) (30 °C) | self-splicing fitness (ln) (37 °C) |
| --- | --- | --- |
| AAGUAGCAAUAUUACGAACG | -1.86 ± 0.11 | -1.17 ± 0.13 |
| AGCCAGCAAUAUUACGCUUG | -3.52 ± 0.17 | -1.58 ± 0.17 |
| GAGCAGCAAUAUUACGAUUC | -0.868 ± 0.093 | -0.29 ± 0.14 |
| AGUAAGCAAUAUUACGAUCG | -0.735 ± 0.17 | -0.248 ± 0.19 |
| AUGCAGCAAUAUUACGUUUG | -3.45 ± 0.17 | -1.82 ± 0.17 |
| GCGCAGCAAUAUUACGCACU | -1.97 ± 0.13 | -1.23 ± 0.12 |
| GCUGAGCAAUAUUACGUCAA | -3.38 ± 0.47 | – |
| AGACAGCAAUAUUACGCGUU | -3.47 ± 0.16 | -2.11 ± 0.14 |
| CACGAGCAAUAUUACGUACU | -2.77 ± 0.16 | -2.54 ± 0.27 |
| UAAGAGCAAUAUUACGGAUC | -3.68 ± 0.46 | -1.64 ± 0.31 |
| AUCGAGCAAUAUUACGUCUC | -3.13 ± 0.22 | -2.18 ± 0.33 |
| AAGAAGCAAUAUUACGCGCA | 0.0488 ± 0.077 | 0.115 ± 0.1 |
| GUCUAGCAAUAUUACGUUGG | -3.01 ± 0.15 | -1.86 ± 0.14 |
| UGACAGCAAUAUUACGGUGU | -4.28 ± 0.23 | -2.52 ± 0.19 |
| AGUCAGCAAUAUUACGCUAC | -3.7 ± 0.24 | -4.03 ± 0.46 |
| GAGGAGCAAUAUUACGCACU | – | -1.49 ± 0.36 |
| CCAAAGCAAUAUUACGUUAU | -3.2 ± 0.13 | -2.68 ± 0.15 |
| UUACAGCAAUAUUACGCAUA | -1.34 ± 0.091 | -0.527 ± 0.1 |
| GAGAAGCAAUAUUACGUUUU | -2.39 ± 0.14 | -1.96 ± 0.17 |
| GAGGAGCAAUAUUACGGGGU | -4.47 ± 0.34 | -2.64 ± 0.22 |
| ACGCAGCAAUAUUACGCCCC | -0.51 ± 0.21 | -0.189 ± 0.28 |
| UCUGAGCAAUAUUACGGGAU | -2.35 ± 0.18 | -2.54 ± 0.24 |
| UUGCAGCAAUAUUACGGCGG | -1.7 ± 0.081 | -1.01 ± 0.11 |
| UAUCAGCAAUAUUACGGUCA | -0.435 ± 0.057 | 0.0755 ± 0.071 |
